For 1 substance, AP5 epitope expression (flow cytometry, HEK293T), fold increase of binding (MFI) in Mn2+ over Ca2+-Mg2+ and fold increase of binding by the N339S mutation over wild-type αVβ3 results are on record in article PMC4012256.

Assay [1] addresses αVβ3(N339S) transiently expressed on HEK293T cells (human) (UniProt P06756).
For assay [2], the target named is wild-type αVβ3 stably expressed in K562 cells (K562-αVβ3) (human) (UniProt P06756). As to the kind of experiment: flow cytometry on cells.
Assay [3] has as its target αVβ3(N339S) transiently expressed on HEK293T cells (human) (UniProt P06756). Nature of the assay: flow cytometry on cells. Background: Flow cytometry measures light scatter and fluorescence of single cells or particles in a stream.

Chain of 10th type III RGD-domain of wild-type fibronectin (wtFN10) (domain or fragment) (P02751 45-2432): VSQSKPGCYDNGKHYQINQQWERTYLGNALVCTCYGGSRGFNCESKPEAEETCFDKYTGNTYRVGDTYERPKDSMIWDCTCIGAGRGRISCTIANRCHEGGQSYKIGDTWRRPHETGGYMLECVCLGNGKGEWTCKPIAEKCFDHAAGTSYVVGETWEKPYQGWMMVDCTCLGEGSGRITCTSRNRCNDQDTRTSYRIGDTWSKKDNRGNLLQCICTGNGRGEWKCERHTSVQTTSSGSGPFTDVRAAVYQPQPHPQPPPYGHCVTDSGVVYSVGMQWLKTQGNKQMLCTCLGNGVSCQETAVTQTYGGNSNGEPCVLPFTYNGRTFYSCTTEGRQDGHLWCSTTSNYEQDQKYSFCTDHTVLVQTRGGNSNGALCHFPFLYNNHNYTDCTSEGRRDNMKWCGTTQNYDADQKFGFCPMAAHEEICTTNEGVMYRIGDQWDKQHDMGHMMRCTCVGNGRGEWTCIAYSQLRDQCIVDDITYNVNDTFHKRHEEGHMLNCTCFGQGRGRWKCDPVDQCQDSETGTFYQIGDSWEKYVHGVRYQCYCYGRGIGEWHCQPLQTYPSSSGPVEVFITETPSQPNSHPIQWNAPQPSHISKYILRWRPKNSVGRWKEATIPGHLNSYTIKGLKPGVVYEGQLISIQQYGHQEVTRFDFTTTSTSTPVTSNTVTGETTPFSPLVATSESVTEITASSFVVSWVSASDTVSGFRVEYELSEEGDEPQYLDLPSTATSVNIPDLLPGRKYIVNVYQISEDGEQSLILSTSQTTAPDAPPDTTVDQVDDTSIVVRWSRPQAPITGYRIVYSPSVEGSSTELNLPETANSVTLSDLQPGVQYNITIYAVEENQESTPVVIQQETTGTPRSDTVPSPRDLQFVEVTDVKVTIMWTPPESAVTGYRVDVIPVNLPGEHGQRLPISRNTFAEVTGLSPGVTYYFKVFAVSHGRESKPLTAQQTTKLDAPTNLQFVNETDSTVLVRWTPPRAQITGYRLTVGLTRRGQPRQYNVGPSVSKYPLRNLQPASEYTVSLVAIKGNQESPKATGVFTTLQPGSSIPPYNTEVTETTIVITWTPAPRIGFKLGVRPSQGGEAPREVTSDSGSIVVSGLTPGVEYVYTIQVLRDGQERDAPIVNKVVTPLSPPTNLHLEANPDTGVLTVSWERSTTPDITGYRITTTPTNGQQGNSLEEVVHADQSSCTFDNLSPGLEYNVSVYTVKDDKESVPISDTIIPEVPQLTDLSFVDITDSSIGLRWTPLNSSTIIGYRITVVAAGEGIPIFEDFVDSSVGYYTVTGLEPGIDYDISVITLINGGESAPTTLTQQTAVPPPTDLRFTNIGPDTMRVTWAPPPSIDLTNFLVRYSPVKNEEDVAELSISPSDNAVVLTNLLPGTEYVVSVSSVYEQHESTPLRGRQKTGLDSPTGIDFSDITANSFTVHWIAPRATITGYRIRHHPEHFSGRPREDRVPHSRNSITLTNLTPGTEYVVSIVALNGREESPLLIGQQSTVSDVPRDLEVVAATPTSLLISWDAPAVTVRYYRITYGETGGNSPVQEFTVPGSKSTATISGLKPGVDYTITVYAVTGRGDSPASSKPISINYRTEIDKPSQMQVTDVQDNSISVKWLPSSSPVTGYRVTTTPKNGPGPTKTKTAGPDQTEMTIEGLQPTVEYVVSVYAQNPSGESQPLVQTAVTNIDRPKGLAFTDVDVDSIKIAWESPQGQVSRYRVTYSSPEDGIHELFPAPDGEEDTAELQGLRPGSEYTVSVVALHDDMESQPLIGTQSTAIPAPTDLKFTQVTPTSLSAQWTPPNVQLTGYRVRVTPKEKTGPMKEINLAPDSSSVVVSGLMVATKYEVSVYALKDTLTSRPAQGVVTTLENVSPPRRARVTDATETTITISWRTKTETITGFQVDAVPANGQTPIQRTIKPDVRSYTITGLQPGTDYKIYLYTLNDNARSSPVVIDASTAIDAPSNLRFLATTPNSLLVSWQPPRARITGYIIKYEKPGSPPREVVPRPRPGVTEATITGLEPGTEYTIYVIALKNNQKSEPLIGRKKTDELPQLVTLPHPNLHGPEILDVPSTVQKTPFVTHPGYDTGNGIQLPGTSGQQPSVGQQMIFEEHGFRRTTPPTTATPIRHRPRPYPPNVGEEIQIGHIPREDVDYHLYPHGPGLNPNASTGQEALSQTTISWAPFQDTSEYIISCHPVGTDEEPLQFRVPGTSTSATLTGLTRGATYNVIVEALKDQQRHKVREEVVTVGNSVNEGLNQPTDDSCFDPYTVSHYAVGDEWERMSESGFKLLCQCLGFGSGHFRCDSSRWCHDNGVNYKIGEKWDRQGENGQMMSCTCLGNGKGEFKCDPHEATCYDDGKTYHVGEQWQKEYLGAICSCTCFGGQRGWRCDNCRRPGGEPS
Chain of αVβ3(N339S) transiently expressed on HEK293T cells (human) (P06756 31-1048, chain 1 of 2): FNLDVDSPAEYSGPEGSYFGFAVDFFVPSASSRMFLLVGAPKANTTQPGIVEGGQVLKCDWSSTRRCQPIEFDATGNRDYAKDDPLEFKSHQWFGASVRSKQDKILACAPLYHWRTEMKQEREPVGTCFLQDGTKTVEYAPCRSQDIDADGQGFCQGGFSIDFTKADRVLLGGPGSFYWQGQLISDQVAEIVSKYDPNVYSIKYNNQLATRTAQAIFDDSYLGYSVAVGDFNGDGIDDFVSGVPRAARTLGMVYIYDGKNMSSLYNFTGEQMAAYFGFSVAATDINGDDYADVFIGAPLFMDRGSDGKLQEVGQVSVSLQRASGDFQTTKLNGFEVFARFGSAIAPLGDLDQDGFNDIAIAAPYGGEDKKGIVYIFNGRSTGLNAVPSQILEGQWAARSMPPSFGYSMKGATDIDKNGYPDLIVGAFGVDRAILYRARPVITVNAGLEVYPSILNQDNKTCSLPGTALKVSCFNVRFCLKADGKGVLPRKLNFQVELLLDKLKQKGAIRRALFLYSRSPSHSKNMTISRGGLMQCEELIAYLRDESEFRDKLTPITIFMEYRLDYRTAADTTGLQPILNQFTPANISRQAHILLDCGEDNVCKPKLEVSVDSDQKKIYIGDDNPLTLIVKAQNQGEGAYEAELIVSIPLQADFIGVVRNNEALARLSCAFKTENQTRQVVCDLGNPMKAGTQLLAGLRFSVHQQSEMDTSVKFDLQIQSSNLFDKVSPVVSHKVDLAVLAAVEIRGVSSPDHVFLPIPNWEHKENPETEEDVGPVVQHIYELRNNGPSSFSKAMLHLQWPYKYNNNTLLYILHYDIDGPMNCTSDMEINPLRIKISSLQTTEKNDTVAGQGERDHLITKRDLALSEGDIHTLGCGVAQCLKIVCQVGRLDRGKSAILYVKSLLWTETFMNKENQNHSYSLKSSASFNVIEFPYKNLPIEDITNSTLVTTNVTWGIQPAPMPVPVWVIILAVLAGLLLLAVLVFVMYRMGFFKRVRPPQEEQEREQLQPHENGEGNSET
Chain of αVβ3(N339S) transiently expressed on HEK293T cells (human) (P05106 27-788 N339S, chain 2 of 2, further chain): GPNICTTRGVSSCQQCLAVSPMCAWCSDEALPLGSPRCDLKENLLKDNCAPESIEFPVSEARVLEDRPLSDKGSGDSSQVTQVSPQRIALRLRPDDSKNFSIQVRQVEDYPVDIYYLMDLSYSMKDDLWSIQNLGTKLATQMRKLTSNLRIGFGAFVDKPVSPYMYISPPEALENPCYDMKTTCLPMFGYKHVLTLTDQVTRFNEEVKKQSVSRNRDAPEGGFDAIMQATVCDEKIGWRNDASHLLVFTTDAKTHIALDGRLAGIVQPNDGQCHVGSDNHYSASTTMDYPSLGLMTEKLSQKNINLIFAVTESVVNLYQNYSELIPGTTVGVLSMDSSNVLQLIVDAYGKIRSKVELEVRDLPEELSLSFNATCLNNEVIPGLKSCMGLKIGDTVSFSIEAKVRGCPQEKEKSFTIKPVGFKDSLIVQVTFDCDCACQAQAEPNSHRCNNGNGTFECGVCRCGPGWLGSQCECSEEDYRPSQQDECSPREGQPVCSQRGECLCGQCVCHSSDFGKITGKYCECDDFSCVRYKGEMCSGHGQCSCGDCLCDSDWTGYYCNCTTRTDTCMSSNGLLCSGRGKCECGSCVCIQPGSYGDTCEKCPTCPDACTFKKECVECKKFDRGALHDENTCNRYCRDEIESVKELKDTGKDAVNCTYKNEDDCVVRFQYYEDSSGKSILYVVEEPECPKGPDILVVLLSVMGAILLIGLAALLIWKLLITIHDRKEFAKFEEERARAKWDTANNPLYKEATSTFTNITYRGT
Chain of wild-type αVβ3 stably expressed in K562 cells (K562-αVβ3) (human) (P06756 31-1048, chain 1 of 2): as the sequence (P06756 31-1048, chain 1 of 2) above
Chain of wild-type αVβ3 stably expressed in K562 cells (K562-αVβ3) (human) (P05106 27-788, chain 2 of 2, further chain): as the sequence (P05106 27-788 N339S, chain 2 of 2, further chain) above, with S313N counted along it

“10th type III RGD-domain of wild-type fibronectin (wtFN10) (domain or fragment)” showed an AP5 epitope expression (flow cytometry, HEK293T) in assay [1] of 2 fold. In assay [2], this substance gave a fold increase of binding (MFI) in Mn2+ over Ca2+-Mg2+ of 10 fold. Further, the fold increase of binding by the N339S mutation over wild-type αVβ3 in assay [3] stood at 6 fold.
